One data set concerns the target T1, W6W585 (Rhizobium sp. CF080, UniProt W6W585).
T1 construct: gene PMI07_004712; full-length synthetic gene in pET21a, C-terminal linker and deca-His tag, soluble E. coli BL21(DE3) lysate
T1 sequence (W6W585 1-409): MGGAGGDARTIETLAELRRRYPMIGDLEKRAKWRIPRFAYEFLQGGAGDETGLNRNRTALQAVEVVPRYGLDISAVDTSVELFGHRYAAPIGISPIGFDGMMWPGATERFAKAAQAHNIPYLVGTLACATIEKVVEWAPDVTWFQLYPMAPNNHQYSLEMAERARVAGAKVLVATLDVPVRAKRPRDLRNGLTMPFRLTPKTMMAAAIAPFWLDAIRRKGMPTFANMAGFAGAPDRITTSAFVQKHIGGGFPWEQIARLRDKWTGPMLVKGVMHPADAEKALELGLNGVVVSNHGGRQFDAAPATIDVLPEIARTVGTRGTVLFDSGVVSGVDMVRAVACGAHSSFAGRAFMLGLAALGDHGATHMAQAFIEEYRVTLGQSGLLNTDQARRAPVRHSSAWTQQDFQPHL
The data set is described as follows: Amplex Red peroxide assay. The following applies: […] DL-mandelate; […] HEPES pH […]; HRP; lysate. It is filed as biochemical.

The next data set concerns the target T2, E6SCX5 (Intrasporangium calvum, UniProt E6SCX5).
T2 construct: gene Intca_2052; full-length synthetic gene in pET21a, C-terminal linker and deca-His tag, soluble E. coli BL21(DE3) lysate
T2 sequence (E6SCX5 1-415): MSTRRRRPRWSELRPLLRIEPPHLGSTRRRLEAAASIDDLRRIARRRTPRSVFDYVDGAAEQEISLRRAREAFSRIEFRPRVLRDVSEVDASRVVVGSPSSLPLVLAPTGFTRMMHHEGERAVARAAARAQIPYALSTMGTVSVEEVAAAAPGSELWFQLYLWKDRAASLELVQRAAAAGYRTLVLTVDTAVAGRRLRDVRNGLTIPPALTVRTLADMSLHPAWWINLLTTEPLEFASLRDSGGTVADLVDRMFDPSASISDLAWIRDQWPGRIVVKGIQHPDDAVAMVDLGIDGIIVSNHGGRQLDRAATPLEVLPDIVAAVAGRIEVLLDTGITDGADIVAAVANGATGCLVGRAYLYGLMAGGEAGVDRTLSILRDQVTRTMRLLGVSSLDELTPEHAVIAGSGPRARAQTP
The data set is described as follows: Amplex Red peroxide assay. It is filed as biochemical. To be noted: 1 mM DL-mandelate; 20 mM HEPES pH 7.4; HRP; lysate.

For another data set, the target named is T3, C9Y9E7 (Curvibacter putative symbiont of Hydra magnipapillata, UniProt C9Y9E7).
T3 construct: gene lldD; full-length synthetic gene in pET21a, C-terminal linker and deca-His tag, soluble E. coli BL21(DE3) lysate
T3 sequence (C9Y9E7 1-381): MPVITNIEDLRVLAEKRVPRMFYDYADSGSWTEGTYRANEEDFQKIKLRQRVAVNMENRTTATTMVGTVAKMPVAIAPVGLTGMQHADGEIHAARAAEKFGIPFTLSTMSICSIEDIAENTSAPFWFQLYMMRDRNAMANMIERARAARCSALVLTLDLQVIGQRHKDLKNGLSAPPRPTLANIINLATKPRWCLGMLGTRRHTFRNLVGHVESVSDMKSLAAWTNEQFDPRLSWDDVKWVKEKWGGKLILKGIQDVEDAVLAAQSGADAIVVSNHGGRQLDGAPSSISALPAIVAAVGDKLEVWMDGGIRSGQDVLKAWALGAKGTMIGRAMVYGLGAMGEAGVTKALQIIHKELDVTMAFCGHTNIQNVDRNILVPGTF
The data set is described as follows: Amplex Red peroxide assay. The following applies: […] DL-mandelate; […] HEPES pH […]; HRP; lysate. It is filed as biochemical.

In another data set the target is T4, B8MKR3 (Talaromyces stipitatus, UniProt B8MKR3).
T4 construct: gene TSTA_043820
T4 sequence (B8MKR3 1-496): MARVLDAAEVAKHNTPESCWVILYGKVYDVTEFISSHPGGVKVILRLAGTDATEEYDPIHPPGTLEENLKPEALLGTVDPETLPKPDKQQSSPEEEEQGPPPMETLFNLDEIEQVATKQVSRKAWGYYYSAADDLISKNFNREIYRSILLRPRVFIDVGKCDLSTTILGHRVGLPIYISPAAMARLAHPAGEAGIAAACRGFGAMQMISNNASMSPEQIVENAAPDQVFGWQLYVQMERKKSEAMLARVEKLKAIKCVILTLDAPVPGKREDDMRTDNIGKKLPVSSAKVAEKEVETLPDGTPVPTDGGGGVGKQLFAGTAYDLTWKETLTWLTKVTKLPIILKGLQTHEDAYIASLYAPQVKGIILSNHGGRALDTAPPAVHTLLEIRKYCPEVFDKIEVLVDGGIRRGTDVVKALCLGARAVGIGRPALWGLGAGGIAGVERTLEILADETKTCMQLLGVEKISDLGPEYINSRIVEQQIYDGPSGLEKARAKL
In words: cytochrome c reduction at […] nm. It is filed as biochemical. To be noted: 2 mM substrate; 0.1 mM cytochrome c; 20 mM HEPES pH 7.4.

Substrate in data set [1]: O=P(O)(O)OC[C@H](O)CO
The data set is described as follows: purified protein. Type of data set: biochemical, Caloramator mitchellensis. The following applies: DCPIP + PMS as electron acceptor, 20 mM HEPES pH 7.4, 25 °C.

Substrate in data set [2]: C[C@@H](O)C(=O)O
In words: purified protein. The following applies: DCPIP + PMS as electron acceptor, 20 mM HEPES pH 7.4, 25 °C.

For the molecule `O=C(O)C(O)c1ccccc1` (racemic) [DL-mandelate], the “Amplex Red peroxide assay” value at W6W585, at E6SCX5 and on C9Y9E7 was “the four proteins display a high activity with mandelate” throughout.

For `C[C@H](O)C(=O)O` [L-lactate], the “cytochrome c reduction at 550 nm” value on B8MKR3 was “the B8MKR3 protein displayed cytochrome b2 L-lactate dehydrogenase activity”.

B1: A0A0R3K2G2 (Caloramator mitchellensis) (protein)
chain: MFDVAIIGAGVIGCSIARELSKYNLNVALIEKENDVGNVTTKANSAIIHAGYDAKPGTLKGKLNAKGNLMFDELCRELEVPFKRVGSLVLAFDDDEMKTLGKLYEQGIQNGVPELYILSKEKVLEMDPNISDNIKGALYAKTGGIIGPWEFTIALAENAVENGVNIFLSNEVVDIEKKDFGYRIITNKDTYDTKYVVNCAGLYADKINNMVSNNKMEIIPRRGQYYLLDKTVGNLVKYVIFQCPSKLGKGVLVTPTVHGNLLIGPDAEDLIDKTALNTTSEGLNFIVEVARRSVKTLPLNMAITNFAGLRARTERDDFIIEEAVDAKGFINVAGIESPGLSSAPAISLYVIDILKNIAKKIEKKENFNPYRRAIPKFIELSEDEKNELVKKDKRFGKIICRCESITEGEIVSAIHRNVGARTVDAVKRRVRAGMGRCQGGFCSPRVIEILARELGVEMTEIEKDHEGSYILTGPTKSEVQ
The kcat is the number of substrate molecules converted per active site and unit of time at saturation. By kcat/Km is commonly meant the second-order rate constant that governs catalysis at low substrate concentration. For the molecule B1, in “purified protein [1]”, the Km is reported as 1.97 +/- 0.23 x 10^-3 M, the kcat is 0.242 s⁻¹ and the kcat/Km is 123 M⁻¹ s⁻¹.

B2: D4MUV9 (Anaerostipes hadrus) (protein)
chain: MSEYQYNKVTPEMIEKFKEIAPKRVLVGDEINEDFTHDEMAIYGKARPEVLVEATSTEEVAAVVKLCNENKIPVTPSGARTGLVGGAVSIGGGVMISLTKMNKILGYDKENFVVKIQSGVLLNDLAQDAEKQGLLYPPDPGEKFATVGGNVATNAGGMRAVKYGCTRDYVRAMTVVLPTGEIVKLGATVSKTSSGYSLLNLMIGSEGTLGIITELTLKVIPAPKSVISLIIPYENLEDCIATVPQFFMHHLAPQALEFMEKEVVMDTEKFLGKQVYPKELEGTEIGAYLLATFDGNSEEQLEDIIEQASEVVLEAGAIDVLVADTPALKKDAWAVRGALLEAIEADTVLLDECDVVVPTNKIAEFLTYTKSLEAEADFRVKSFGHAGDGNLHIYTCSNDMEEGEFKKQVAVFMDKVYAKATEFGGMISGEHGIGHGKMDYLAESLGPVQMRIMEGVKEVFDPNMILNPGKICYKL
Turning to B2, in “purified protein [2]”, the Km is on record as 0.40 +/- 0.04 x 10^-3 M, the kcat was 5.18 s⁻¹ and the kcat/Km came to 13100 M⁻¹ s⁻¹.

(Values after paper PMC8491902, “Experimental and computational investigation of enzyme functional annotations uncovers misannotation in the EC 1.1.3.15 enzyme class” (PLoS Computational Biology, 2021).)
